Reference: US20110212853

Assays:
[1] = test system: recombinant human MCP-1 N1pE (human MCP-1 with an N-terminal pyroglutamate)
[2] = test system: recombinant human MCP-1(1-76) starting with an N-terminal glutamine

## recombinant human Aminopeptidase P (R&D Systems)
[1]
  N-terminal cleavage, Maldi-TOF mass spectrometry: conferring resistance against N-terminal degradation by post-proline cleaving enzymes, e.g. DP4 and aminopeptidase P
[2]
  N-terminal cleavage, Maldi-TOF mass spectrometry: cleavage of human MCP-1(1-76) bearing an N-terminal glutaminyl residue by recombinant human Aminopeptidase P
